Consider four molecules from patent publication US20220347324A1 (Bristol-Myers Squibb, published 2022).

For assay [1], the target named is T1, human PD-L1 expressed on cells (hPD-L1-positive L2987 cells, L2987 xenografts, human lung tumor tissue) (human, UniProt Q9NZQ7 19-290).
T1 construct: whole, on cells; also called hPD-L1(+) L2987; PD-L1 positive cells L2987
The assay can be described thus: in vivo PET in mice with bilateral xenografts, last 10 min of a 2 h scan. How it is done: (§1) A 10-minute transmission image was first acquired using a ⁵⁷Co point source for the purpose of attenuation correction of the final PET images. Following the transmission scan, radiotracer solutions were administered via the previously installed tail vein catheters and a 2 hour emission image was acquired. […] All injections were formulated in 200 μL saline prior to injection. Exact injected doses were calculated by taking direct measurements of the formulated dose and subtracting the radioactivity remaining in the syringe and the tail vein catheter.
(§2) Images were reconstructed using a maximum a posteriori (MAP) algorithm with attenuation correction using the collected transmission images and corrected for radioisotope decay. In the final images, regions of interest (ROIs) were drawn around the tumor boundary using ASIPro software (Siemens Preclinical Solutions). Time-activity curves were calculated for each ROI to yield a quantitative view of radiotracer within the tumor volume over the course of the 2 hour emission image. For final comparison, individual time-activity curves were normalized based on the injected radiotracer dose for each specific animal. Radiotracer uptake was compared across tumors using the final 10 minutes of each time-activity curve (1 hour 50 minutes-2h post-radiotracer injection).

For assay [2], the target named is T1, human PD-L1 expressed on cells …. The assay is described as follows: in vivo PET in mice, co-injected with 3 mg/kg unlabeled A02 Adnectin as competitor. How it is done: as §1, §2
Assay [3] has the same target. The assay can be described thus: in vivo PET in mice with bilateral xenografts. The text has this: Briefly, nude mice were subcutaneously implanted bilaterally with HT-29 and L2987 cells. Once tumors reached approximately 200-300 mm³, animals were selected for imaging. Mice were anesthetized with 2% isoflurane in oxygen and placed onto the imaging bed of a Focus 120 PET imaging system (Siemens Preclinical Solutions). […] A 10-minute transmission image was then collected using a ⁵⁷Co point source for use as attenuation correction. Images were reconstructed using a 3D maximum a posteriori algorithm with attenuation correction using AsiPro software (Siemens Preclinical Solutions).

The target is the same in assay [4]. The assay can be described thus: cell binding to human PD-L1 positive L2987 cells; Adnectin marked (Cys-Capped).
The target is the same in assay [5]. The assay can be described thus: radiotracer cell binding, 1 h on ice, gamma counter. As to the method:
After the incubation period, cell samples were centrifuged at 200×g and the supernatant was discarded. Cell pellets were resuspended in 1 mL PBS+0.5% BSA and the wash procedure repeated for a total of 3 washes. Following the final wash, cells were again centrifuged at 200×g and the supernatant was discarded. The radioactivity of the remaining cell pellets was then measured by gamma counter.

B1: 64Cu-A02-NODAGA (designed binder)
chain: GVSDVPRDLEVVAATPTSLLISWSYDGPIDRYYRITYGETGGNSPVQEFTVPPDQKTATISGLKPGVDYTITVYAVRLEEAHYNREFPISINYRTPC
modifications: C-terminal cysteine linked by maleimide to NODAGA chelating 64Cu
notes: A02 with C-terminal PC; also called NODAGA-64Cu-labeled A02 anti-PD-L1 Adnectin
For the molecule B1, the “radiotracer uptake, hPD-L1(+) L2987 xenografts against hPD-L1(-) HT-29 xenografts” value in assay [1] came out at 3.05 fold. The “radiotracer uptake, hPD-L1(+) L2987 xenografts against hPD-L1(-) HT-29 xenografts, with cold competitor” value in assay [2] was found to be 1.04 fold.

B2: [18F]-A02-4PEG-DBCO-FPPEGA (designed binder)
chain: GVSDVPRDLEVVAATPTSLLISWSYDGPIDRYYRITYGETGGNSPVQEFTVPPDQKTATISGLKPGVDYTITVYAVRLEEAHYNREFPISINYRTPC
modifications: C-terminal cysteine linked to Maleamide-DBCO-FFP(18F)
notes: also called 18F-DBCO-A02 anti-PD-L1 Adnectin; ADX_5322_A02-Mal-DBCO-FFPF18
On to B2, for which the “maximum radiotracer uptake ratio, hPD-L1(+) L2987 against hPD-L1(-) HT-29 xenografts” value in assay [3] stood at 3.53 ratio.

B3: ADX_5322_A02 (designed binder)
chain: MGVSDVPRDLEVVAATPTSLLISWSYDGPIDRYYRITYGETGGNSPVQEFTVPPDQKTATISGLKPGVDYTITVYAVRLEEAHYNREFPISINYRTPCHHHHHH
notes: C-terminus NYRTPCH6
What is called EC50 is the concentration that produces a half-maximal response. A high value points to weaker potency. The molecule B3 came in with an EC50 in assay [4] of 0.43 nM.

B4: 64Cu-E01-NODAGA (designed binder)
chain: GVSDVPRDLEVVAATPTSLLISWRAQLSPSFYYRITYGETGGNSPVQEFTVPNDVMTATISGLKPGVDYTITVYAVTTHGVYFYSPISINYRTPC
modifications: C-terminal cysteine linked by maleimide to NODAGA chelating 64Cu
notes: E01 with C-terminal PC (ADX_5417_E01 w/ N leader and modified C-terminus); also called 64Cu-E01 anti-PD-L1 Adnectin
For B4, the “fold cell associated radioactivity, hPD-L1-positive L2987 cells against hPD-L1-negative HT-29 cells” value in assay [5] was 44.6 fold.
